Data published in patent publication US20020151006A1 (ROCKEFELLER UNIVERSITY, published 2002).

B1: bacteriophage T4 antisigma protein AsiA with a C-terminal hexahistidine tag (other)
chain: MNKNIDTVREIITVASILIKFSREDIVENRANFIAFLNEIGVTHEGRKLNQNSFRKIVSELTQEDKKTLIDEFNEGFEGVYRYLEMYTNKHHHHHH
notes: also called AsiAHis; AsiAHIS

What was measured:
[1] = target: consolidated ligand NH2-PVpYENVG6>(…ONH2); test: fluorescence-based titration assay in solution
[2] = target: T1, E. coli RNA polymerase sigma-70 subunit, full-length recombinant (sigma is printed as a garbled character: … (E. coli, UniProt P00579 1-613)); test: Ni2+-NTA agarose co-immobilization, SDS-PAGE
T1 construct: range 1-613; also called full-length ?^70; recombinant ?^70
Protocol: (§1) The indicated proteins were loaded onto Ni²⁺-NTA-agarose beads (L) and the unbound protein was removed (F). The beads were extensively washed and the bound protein was eluted with buffer containing 100 mM imidazole (E).
(§2) A mixture of AsiAHis and recombinant σ⁷⁰ was loaded onto Ni²⁺-NTA agarose beads (lane 4) and the unbound material removed (lane 5). The beads were subsequently washed with 10 mM imidazole buffer and then eluted with 100 mM imidazole buffer.

[3] = target: T2, cleavage product containing the first 567 amino acids of sigma-70 (E. coli, UniProt P00579 1-567); test: Ni2+-NTA agarose co-immobilization, SDS-PAGE
T2 construct: range 1-567; also called ?^70 fragment
Protocol: as §1, §2

[4] = target: T3, semisynthetic 600 amino acid-long sigma-70 derivative (ligation product of sigma-70 1-567 with the synthetic … (E. coli, UniProt P00579 1-567; P00579 568-600); test: Ni2+-NTA agarose co-immobilization, SDS-PAGE
T3 construct: range 1-567;range 568-600; also called semisynthetic ?^70
Protocol: as §1, §2

Molecule | Kd [1] [nM] | binding result [2] | binding result [3] | binding result [4]
Abl-[G^120C^121][SH2-^15N]SH(32), the ligation product of the Abl-SH3 and Abl-SH2 domains (from UniProt P00519 65-220) | 300 | – | – | –
B1 | – | binds | no binding | binds
